According to the supplement of paper PMC10567573:

B1: PCDHGA10 (parent)
chain: FHELQMQVTASDSGDPPLSSNVSL

Variants of: B1
Test: protein stability index of a GFP-peptide fusion (GPS, HEK-293T) (PSI 1-6); higher = more stable
Conditions: c terminus: a fixed tail appended
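Also: lentivirally expressed fusions sorted by FACS into six bins by GFP to DsRed ratio, PSI derived from sequencing read proportions per bin multiplied by bin number.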

Variant	protein stability index
N21D	2.5
N21P	2.5
N21F	1.54
N21G	2.24
N21Y	1.64
N21R	1.91
S19R	2.02
S19C	1.93
S19D	3.07
S19I	1.66
S19M	2.36
D12G	2.14
D12K	2.35
D12W	1.81
D12C	1.98
V8Y	2.01
V8R	3.2
V8P	3.33
V8K	3.06
V8T	2.81
V8Q	3.51
V8E	3.94
V8F	1.95
V8L	2.15

Variant	protein stability index
V8C	2.56
A10L	1.29
A10Q	2.44
A10I	2.38
A10E	2.7
A10P	2.88
A10G	2.24
A10D	2.62
A10M	1.49
L24H	2.84
L24A	3.29
L24P	2.9
L24W	2.64
L24E	3.07
L24Y	2.31
L24M	2.68
S20D	3.06
S20K	1.85
S20E	2.75
S20P	2.54
S20L	2.69
S20M	2.2
S20F	2.69
V22K	2.84

Variant	protein stability index
V22Y	2.56
V22D	3.4
V22N	2.77
V22F	1.8
V22R	2.69
V22P	2.34
V22G	2.72
V22W	2.05
F1N	4.61
F1V	4.11
F1T	4.57
F1W	3.81
F1Y	2.78
F1L	4.5
H2P	3.99
H2W	1.78
H2Y	2.31
H2M	2.81
H2I	1.88
H2R	3.85
H2G	3.94
H2V	1.92
H2L	2.51
S11Q	2.72

Variant	protein stability index
S11M	1.78
S11A	2.22
S11W	2.59
S11P	2.21
S11I	1.88
S11R	1.96
S11Y	1.47
S11K	2.9
S23F	2.39
S23L	2.05
S23E	3.33
S23R	2.51
S23T	2.18
S23A	2.15
S23K	2.84
P17G	2.14
P17M	2.38
P17D	2.28
P17H	1.85
P17W	1.48
P17Y	1.52
P17K	2.43
T9I	2.09
T9A	2.55

Variant	protein stability index
T9W	2.95
T9C	1.93
T9M	2.18
D15P	1.95
D15N	2.48
D15G	1.97
D15L	1.64
G14I	2.12
G14L	2.11
G14P	3.16
G14K	2.31
G14F	1.82
G14Q	1.62
G14T	2.31
G14N	2.27
E3Q	1.85
E3D	2.07
E3M	2.31
E3S	1.59
E3Y	2.26
E3R	1.85
Q5A	2.26
Q5L	1.4
Q5D	3.32

Variant	protein stability index
Q5W	3.59
Q5E	3.23
Q5F	3.27
Q5Y	1.87
P16N	2.23
P16I	1.7
P16H	2.1
P16M	2.14
P16G	2.33
P16Q	2.08
P16W	1.69
P16A	1.74
P16V	2.21
P16K	2.36
P16T	1.99
M6G	3.07
M6W	2.02
M6N	3.46
M6Q	3.54
M6H	2.98
M6D	3.81
M6I	1.65
M6T	3.32
M6A	2.84

Variant	protein stability index
M6L	2.58
L18R	2.42
L18D	3.51
L18Y	2.15
L18Q	3
Q7G	2.78
Q7T	2.33
Q7F	2.66
Q7Y	2.69
Q7N	2
Q7E	2.54
S13Q	2.15
S13F	1.52
S13H	2.1
S13L	2.13
S13W	1.6
S13K	2.01
S13V	1.67
S13P	1.71
S13R	2.12
L4R	2.77
L4G	2.67
L4P	2.57
